# According to patent US20220031841A1 (ABSCI, published 2022):
# T1: O-linked N-acetylglucosamine (GlcNAc) transferase (OGT) (human, UniProt O15294 2-1046)
# T1 construct: The array carries full-length recombinant human proteins expressed in S. cerevisiae; also called Human OGT
# T1 sequence: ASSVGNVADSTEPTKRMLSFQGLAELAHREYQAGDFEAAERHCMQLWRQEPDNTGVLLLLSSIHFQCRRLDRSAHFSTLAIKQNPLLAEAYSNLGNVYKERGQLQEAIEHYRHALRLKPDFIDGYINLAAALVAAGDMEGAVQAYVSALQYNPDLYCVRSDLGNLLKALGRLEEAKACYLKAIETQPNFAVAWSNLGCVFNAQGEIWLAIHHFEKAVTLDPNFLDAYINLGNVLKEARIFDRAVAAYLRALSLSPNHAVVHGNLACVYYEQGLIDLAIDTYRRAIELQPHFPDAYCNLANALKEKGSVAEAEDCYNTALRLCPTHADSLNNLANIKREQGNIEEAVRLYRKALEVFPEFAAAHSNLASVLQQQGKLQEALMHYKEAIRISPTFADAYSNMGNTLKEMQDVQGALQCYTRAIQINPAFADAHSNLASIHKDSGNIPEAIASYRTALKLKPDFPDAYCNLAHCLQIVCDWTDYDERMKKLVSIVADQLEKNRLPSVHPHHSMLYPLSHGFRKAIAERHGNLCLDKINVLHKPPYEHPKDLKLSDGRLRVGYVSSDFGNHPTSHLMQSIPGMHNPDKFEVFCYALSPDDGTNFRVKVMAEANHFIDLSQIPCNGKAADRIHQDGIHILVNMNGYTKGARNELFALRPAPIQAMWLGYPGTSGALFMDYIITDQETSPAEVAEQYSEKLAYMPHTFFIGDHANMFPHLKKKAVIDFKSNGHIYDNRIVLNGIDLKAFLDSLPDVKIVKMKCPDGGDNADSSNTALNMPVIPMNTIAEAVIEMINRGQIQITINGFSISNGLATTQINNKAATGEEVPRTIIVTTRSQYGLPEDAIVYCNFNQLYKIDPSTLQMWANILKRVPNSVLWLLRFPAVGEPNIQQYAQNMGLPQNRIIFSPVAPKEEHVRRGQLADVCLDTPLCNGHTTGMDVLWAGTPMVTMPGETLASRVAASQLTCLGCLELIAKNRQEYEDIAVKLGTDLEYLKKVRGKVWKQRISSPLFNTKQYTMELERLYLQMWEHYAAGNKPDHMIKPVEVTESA
# B1: TMEL1012 (antibody, V domains shown)
# VH: PLQLQESGPGLVKPSETLSLTCTVSGDSITTTYYWGWIRQPPGKGLEWIASIYFTGSTFHNPSLKSRVTMSVDTSKNQFSLNLSSVTAADTAVYYCARRVGNWNYVWFDPWGQGTLVSVSS
# VL: AYVLTQPPSVSVAPGQTARMTCGGNNIGSKSVHWYRQRPGQAPVLVVYDDTDRPSGIPERFSGSNSGNTATLTISRVEAGDEADYYCQVWDTNSDHVVFGGGTKLTVLG
# B2: TMEL1014 (antibody, V domains shown)
# VH: SVQLVESGGGVVQPGRSLRLSCAASGFTFSSYTMHWVRQAPGKGLEWVALISYDGSNKYYADSVKGRFTISRDNPKNTLYLQMNSLRVEDTAVYYCARDWTLGYWGQGTLVTVSS
# VL: VSSELTQDPAVSVALGQTVRITCQGDSLRNYYANWYQQKPGQAPILVIYDKNNRPSGIPDRFSGSSSGNTASLTITGAQAEDEADYYCNSRDSSGYHLVFGGGTKLTVLG
# notes: It was detected with an anti-human IgG Fc gamma secondary antibody
# B3: TMEL1008 (antibody, V domains shown)
# VH: QVQLVQSGAEVKKPGSSVKVSCKASGGTFNRDGIIWVRQAPGQGLEWMGRIIPILGIANYAQKFQGRVTIIADKSTSTAYMELSSLRSEDTAVYYCARESEVGRGMDVWGQGTTVTVSS
# VL: ASALTQPASVSGSPGQSITISCTGTSSDVGDYNYVSWYQQHPGKAPKLMIYDVSNRPSGVSHRFSGSKSGNTASLTISGLQAEDEADYYCSSYTISSTLGVFGPGTKVTVLG
# notes: as for B2
# B4: TMEL1002 (antibody, V domains shown)
# VH: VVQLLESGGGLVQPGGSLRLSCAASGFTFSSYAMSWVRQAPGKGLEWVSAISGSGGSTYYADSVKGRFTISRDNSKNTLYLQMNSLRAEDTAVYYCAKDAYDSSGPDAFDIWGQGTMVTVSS
# VL: ASALTQPASVSGSPGQSITISCTGTSSDVGDYNYVSWYQQHPGKAPKLMIYDVSNRPSGVSNRFSGSKSGNTASLTISGLQAEDEADYYCSSYTSSSTLVFGGGTKLTVLG
# B5: TMEL1007 (antibody, V domains shown)
# VH: HVHLVQSGAEVKKPGSSVKVSCTASGGSFSSNPISWVRQAPGHGLQWMGGFVPLFGTANYAPSFHGRLTITADESTSTTYMELNSLRSEDSAVYYCARDFNWNFDFWGQGTLVTVSS
# VL: QSALTQPASVSGSPGQSITISCTGTSSDIGSYNLVSWYRQYPGKAPKLMIYEVNKRPSGVSNRFSGSKSGNTASLTISGLQAEDEADYYCCSYAGTTTFVIFGRGTKLTVLG
# notes: as for B2
# B6: TMEL1004 (antibody, V domains shown)
# VH: QITLKESGPTLVKPTQTLTLTCTFSGFSLNTPGVGVGWIRQPPGKALEWLALIYWDDDKRYRPSLESRLTITKDTSKNHVVLTMTNMDPVDTATYFCAHKNLQYSEWFDPWGQGTLVIVSS
# VL: EMVLTQSPATLSLSPGERATLSCRASQSVSRNSLAWYQQRPGQTPRLLIYGASSRATGIPDRFSGSGSGTDFTLIISRLEPEDFAVYFCLQYDESPYTFGQGAKLEIKR
# B7: TMEL1013 (antibody, V domains shown)
# VH: PVQLVQSGAEVKKPGSSVKVSCKASGGTFSSYTINWVRQAPGQGLEWMGRIIPILGVANYAQKFQGRVTITADKSTSTAYMDLSSLRSEDTAVYYCAREWERAFDYWGQGTLVTVSS
# VL: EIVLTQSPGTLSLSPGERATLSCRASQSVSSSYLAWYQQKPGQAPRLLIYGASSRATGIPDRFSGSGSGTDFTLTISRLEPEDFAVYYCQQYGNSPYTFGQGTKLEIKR
# B8: TMEL1011 (antibody, V domains shown)
# VH: PVQLVQSGAEVKKPGSSVKVSCKASGGTFSSYSFNWVRQAPGQGLEWMARIIPILGLANYAQKFQGRVTLTADESTSTAYMELSSLRSEDTAIFYCAGMVLGQLGFDPWGQGTLVTVSS
# VL: QFMLTQPHSVSESPGRTVTISCTRSSGSIARNYVHWYQHRPGSSPTTVIYEDDQRPSGVPDRFSGSIDSSSNSASLTISGLKPEDEADYFCQSYDSNIWVFGGGTKLTVLG
# notes: as for B2
# B9: TMEL1010 (antibody, V domains shown)
# VH: QVQLVQSGAEVKKPGASVKVSCKASGYTFSSYGISWVRQAPGQGLEWMGWISAYNGNTNYAKKLQGRVTMTTDTSTSTAYLELRSLRSDDTAVYYCARGDGPFDYWGQGTLVTVSS
# VL: EIVMTQSPATLSVSPGERATLSCWASQSVSSSLAWYQQKPGQAPRLLMYGASNRATGIPARFSGSGSGTEFTLTISSLQSEDFAVYYCQQYNKWPPDTFGQGTKLEIKR
# notes: as for B2
# B10: TMEL1009 (antibody, V domains shown)
# VH: PVQLVQSGAEVKKPGSSVKVSCRASGGTFSNYGLNWVRQAPGQGLEWMGGIIPIFGSVNYAQKFQDRVTITADESTSTTYMDLNSLRSEDTAVYYCATERGHNMERAFDFWGQGTLVTVSS
# VL: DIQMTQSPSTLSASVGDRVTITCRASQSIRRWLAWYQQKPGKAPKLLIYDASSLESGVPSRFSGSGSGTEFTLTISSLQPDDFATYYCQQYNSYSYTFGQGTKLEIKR
# Target: T2, Cancer/testis antigen 1 (CTAG1A) (human, UniProt P78358 1-180)
# T2 construct: The array carries full-length recombinant human proteins expressed in S. cerevisiae; also called NY-ESO-1; Cancer/Testis Antigen 1A
# T2 sequence (P78358 whole entry): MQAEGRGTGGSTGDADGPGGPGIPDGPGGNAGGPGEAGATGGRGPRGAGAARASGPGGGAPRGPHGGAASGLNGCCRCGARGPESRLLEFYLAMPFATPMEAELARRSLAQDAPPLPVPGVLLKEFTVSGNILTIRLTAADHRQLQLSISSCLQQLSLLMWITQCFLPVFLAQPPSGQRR
# Assay: HuProt protein array, F635 z-score
# Source text: (§1) Large scale protein arrays are versatile and sensitive platforms for antibody specificity evaluation. They can be used for the evaluation of protein binding or affinity reagents that are widely employed in research and clinical applications. The microarray used in our target identification experiment provides the largest number of unique, full-length, individually purified human proteins on a single microscope slide. This allows thousands of interactions to be profiled in a high-throughput manner. The hill-length recombinant proteins are expressed in the yeast S. cerevisiae, purified, and printed on glass slides in duplicate along with a set of control proteins (GST, BSA, histones, IgG, etc.). Such microarray is not restricted to a particular type of surface coating, although the default is glass coated with ultra-thin nitrocellulose film for the non-covalent, yet irreversible, capture of active proteins to the surface. Fourteen Protein arrays were used for the antibody cross-reactivity assay of the samples. The antibodies were probed at […] on the arrays and incubated at room temperature for 1 hour. After probing, the arrays were washed according to the protocol and probed with Alexa-647-anti-human IgG […] specific secondary antibodies under conditions optimized for signal detection. The antibody-antigen binding score was calculated for each protein represented on the array and expressed as z-scores.
# (§2) Antibody samples are probed on native HuProt arrays at 1 μg/ml and incubated at room temperature for 1 hour. After probing, the arrays are washed according to the standard protocols and probed with Alexa-647-anti-human IgG Fc gamma specific secondary antibodies under conditions optimized for signal detection.
# (§3) Z score is the average Z score of the duplicate spots of a given protein (each protein is printed in duplicate on a HuProt™ array). The Z score of each spot on a given array is calculated according to the equation: […]
row,binding result,Binder
1,no binding (tested: 1 µg/ml),B1
2,no binding (tested: 1 µg/ml),B2
3,no binding (tested: 1 µg/ml),B3
4,no binding (tested: 1 µg/ml),B4
5,no binding (tested: 1 µg/ml),B5
6,no binding (tested: 1 µg/ml),B6
7,no binding (tested: 1 µg/ml),B7
8,no binding (tested: 1 µg/ml),B8
9,no binding (tested: 1 µg/ml),B9
10,no binding (tested: 1 µg/ml),B10

# Target: T3, Chromobox protein homolog 5 (CBX5) (human, UniProt P45973 1-191)
# T3 construct: The array carries full-length recombinant human proteins expressed in S. cerevisiae; also called Human Chromobox protein homolog 5
# T3 sequence (P45973 whole entry): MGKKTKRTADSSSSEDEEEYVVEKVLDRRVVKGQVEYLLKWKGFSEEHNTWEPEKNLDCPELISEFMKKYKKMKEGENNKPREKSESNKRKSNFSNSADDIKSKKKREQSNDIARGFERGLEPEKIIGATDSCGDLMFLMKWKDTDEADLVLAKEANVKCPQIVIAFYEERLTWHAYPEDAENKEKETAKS
# Assay: HuProt protein array, F635 z-score
# Source text: as §1, §2, §3
row,binding result,Binder
1,no binding (tested: 1 µg/ml),B1
2,no binding (tested: 1 µg/ml),B2
3,no binding (tested: 1 µg/ml),B3
4,no binding (tested: 1 µg/ml),B4
5,no binding (tested: 1 µg/ml),B5
6,no binding (tested: 1 µg/ml),B6
7,no binding (tested: 1 µg/ml),B7
8,no binding (tested: 1 µg/ml),B8
9,no binding (tested: 1 µg/ml),B9
10,no binding (tested: 1 µg/ml),B10

# Target: T4, Chromobox protein homolog 1 (CBX1) (human, UniProt P83916 1-185)
# T4 construct: The array carries full-length recombinant human proteins expressed in S. cerevisiae; also called Human Chromobox protein homolog 1
# T4 sequence (P83916 whole entry): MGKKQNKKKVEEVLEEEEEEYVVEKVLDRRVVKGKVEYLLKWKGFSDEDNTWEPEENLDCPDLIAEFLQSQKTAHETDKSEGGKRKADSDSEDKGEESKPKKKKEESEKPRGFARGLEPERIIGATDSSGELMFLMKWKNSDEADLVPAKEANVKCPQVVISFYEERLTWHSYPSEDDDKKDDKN
# Assay: HuProt protein array, F635 z-score
# Source text: as §1, §2, §3
row,binding result,Binder
1,no binding (tested: 1 µg/ml),B1
2,no binding (tested: 1 µg/ml),B2
3,no binding (tested: 1 µg/ml),B3
4,no binding (tested: 1 µg/ml),B4
5,no binding (tested: 1 µg/ml),B5
6,no binding (tested: 1 µg/ml),B6
7,no binding (tested: 1 µg/ml),B7
8,no binding (tested: 1 µg/ml),B8
9,no binding (tested: 1 µg/ml),B9
10,no binding (tested: 1 µg/ml),B10

# Target: T1, O-linked N-acetylglucosamine (GlcNAc) …
# Assay: HuProt protein array, F635 z-score
# Source text: as §1, §2, §3
row,binding result,Binder
1,no binding (tested: 1 µg/ml),B1
2,no binding (tested: 1 µg/ml),B3
3,no binding (tested: 1 µg/ml),B4
4,no binding (tested: 1 µg/ml),B5
5,no binding (tested: 1 µg/ml),B6
6,no binding (tested: 1 µg/ml),B7
7,no binding (tested: 1 µg/ml),B8
8,no binding (tested: 1 µg/ml),B9
9,no binding (tested: 1 µg/ml),B10
